Measured values taken from the DeepSol protein solubility set.

Test: soluble on expression in E. coli; label from the status in PepcDB or PDB records

Row | Sequence | soluble on expression in E. coli
1 | MKIYTRTGDAGETGLYGAERVVKAHPRVEAYGTVDEANSAIGLARSLLPGKHRDLHDLLERLQNALFDLGADLATRMGSPYEKNIARMDAEDVRALEEAIDRYQEESPPFQGFILPGGHPAAAALHLARTVVRRAERKAVALSREEPVNPEVIRYLNRLSDLLFVLARVVNAREGIKEEGWLVKKRR | soluble
2 | MDANTLNVSFEEILKGKKLDEDSIGLTLSPDKDHEDGSQVSPTQDRKELDQVVGEDEKDDFFE | soluble
3 | MAHHHHHHMKALQRGWRVICATRGGVPIHGSPLYNDFTSLQQKHGDTLSQGVAHDTCHVPQPLEFVSLDATSRLQVFQFMDDHPDASAIISCIGLLTRDHEMARRVCGDANVNIAAALYERRAVARRMVLISAEPVGTRAGFFLNSRWALKGYFMGKRVAERAVLENLGDDGAVLRPGFIYGTRHVPLGEGCVPVPLWPIGKPLEAVLRPLHLHGLLVPPISVDVVAEAAVRLAEAPGPSTVLDYYGMQQVCGLPQDGHHVLGG | not soluble
4 | VHADLAATTSREDFRLLAAEHRVVPVTRKVLADSETPLSAYRKLAANRPGTFLLESAENGRSWSRWSFIGAGAPTALTVREGQAVWLGAVPKDAPTGGDPLRALQVTLELLATADRQSEPGLPPLSGGMVGFFAYDMVRRLERLPERAVDDLCLPDMLLLLATDVAAVDHHEGTITLIANAVNWNGTDERVDWAYDDAVARLDVMTAALGQPLPSTVATFSRPEPRHRAQRTVEEYGAIVEYLVDQIAAGEAFQVVPSQRFEMDTDVDPIDVYRILRVTNPSPYMYLLQVPNSDGAVDFSIVGSSPEALVTVHEGWATTHPIAGTRWRGRTDDEDVLLEKELLADDKERAEHLMLVDLGRNDLGRVCTPGTVRVEDYSHIERYSHVMHLVSTVTGKLGEGRTALDAVTACFPAGTLSGAPKVRAMELIEEVEKTRRGLYGGVVGYLDFAGNADFAIAIRTALMRNGTAYVQAGGGVVADSNGSYEYNEARNKARAVLNAIAAAETLAAPGANRSGC | soluble
5 | SLQKEANKTYHSSLKDGKLILLLDLDNTLLQATSFAKFNMELPLENFVDDNGEAELYKFYLPQYNFFYYLKFRPYVRQFLQILSLYYELAIYTNATREYADVVIAILDPDRTIFSDRIVARCSSTDRDENKYFSRIYPNVDPKYVIAFDDRKDVWIDIPQSHILKAEHYNFFELSKYDIIS | not soluble
6 | MSSCKSHVYVSAFLLCMLIPISQQVLNEHNQKLEWIVGKWRSEFSGKIFWPTVPTMTFGEELVINEAPIAKSANVQFLNFSARAWSHSTKDHFHDEWGFLTVDPVGNATLMTTGNNGFTTYETGTVSPNKLVLTLKDIGRISFSRDLPVEDLRRTFIRHDDRYMEQVIEMRTATHPKVGYLEHTRVVYTKLK | not soluble
7 | MSLKFTAIDFETANEKRNSPCSIGIVVVKDGHVVEKSHHLIRPKEMRFMPINIGIHGIRPAMVEKEPEFDKVWEKIKHYFDDTLVIAHNASFDISVLRKSAELYNIELPEFNYICTMKLARNFYKGIENAKLNTVNNFLGYEFRHHDALYDALACSNIMLSISKELKCKDITEISKLLGEGHHHHHH | not soluble
8 | KYHHLTLTQRAGSAVPTSNKVLDVKGQYLESGLSAPLIAEMRKHLKAGNQVMLFLNRRGFSPALMCHECGWIAECKRCDAYYTFHQYSNEIRCHHCGSQQPVIHQCQGC | not soluble
9 | MMKKMAIACALLSSVVASSVWADAASSLKSRLDKVSSFHATFTQKVTDGSGAAVQEGQGDLWVKRPNLFNWHMTQPDESILVSDGKTLWFYNPFVEQATATWLKDATGNTPFMLIARNQASDWQQYNIKQDGDNFVLTPKASNGNLKQFTINVGRDGTIHQFSAVEQDDQRSAYQLKSQQNGAVDPSKFTFTPPQGVTIDDQRK | not soluble
10 | MSLENKRILITGGAGFIGSNMVEHLLPKNEVTVIDNLSITDDRYIKKFYDNPNFKFIKKDILNGIDGYHYDIVVHLAADSDVRNGSSNPALDMKVNVEGTISVLEMMRKSDIKDILFASSSTVYGEAKVIPTPENYGPLLPISSYGASKLAAEAFISAYASYYGFNALLFRFANVVGKNSTHGVIFDFINKLKNNKKELEVLGDGTQAKSYIHVEDLIGSMIYVYEHVKGVEPFNLGNDDVTSVDKIAKFVLEAMGLKDTAIVHRGGYNGRGWPGDVKYAMMDIAKLKKTGWKNKYSSDEAVKKSINEVMNQILEGHHHHHH | soluble
11 | MTVSTPPSIATGNAPSPDYRVEILSESLPFIQKFRGKTIVVKYGGAAMTSPELKSSVVSDLVLLACVGLRPILVHGGGPDINRYLKQLNIPAEFRDGLRVTDATTMEIVSMVLVGKVNKNLVSLINAAGATAVGLSGHDGRLLTARPVPNSAQLGFVGEVARVDPSVLRPLVDYGYIPVIASVAADDSGQAYNINADTVAGELAAALGAEKLILLTDVAGILENKEDPSSLIKEIDIKGVKKMIEDGKVAGGMIPKVKCCIRSLAQGVKTASIIDGRRQHSLLHEIMSDEGAGTMITG | soluble
12 | GAMHTFYGTRLLNPKPVDFALEGPQGPVRLSQFQDKVVLLFFGFTRCPDVCPTTLLALKRAYEKLPPKAQERVQVIFVSVDPERDPPEVADRYAKAFHPSFLGLSGSPEAVREAAQTFGVFYQKSQYRGPGEYLVDHTATTFVVKEGRLVLLYSPDKAEATDRVVADLQALL | soluble
13 | PHMSGLKKFFPYSTNVLKGAAADIALPSLAGKTVFFYFSASWCPPCRAFTPQLIDFYKAHAESKNFEVMLISWDESAEDFKDYYAKMPWLALPFEDRKGMEFLTTGFDVKSIPTLVGVEADSGNIITTQARTMVVKDPEAKDFPWPNVEAKK | soluble
14 | MGSDKIHHHHHHMSEISAIWERIEAWHAANDQTENLNPGATAEALAQAEKDMGLTFPPEMRESLLRHDGSVDDSWPTGELLSLERMADERKVWMDLLQDGTFDGNASHNESSEALQPGWWNPAWIPLDADGGGNGAVIDLAPGPQGTVGQVIDMDHEVGPSGPKYVSLAAYLEAMLERLSEAEE | not soluble
15 | MGSDKIHHHHHHMHGELGKENELDGEIFRQGPVEIRDSRQKVIHSGFSPESQIIEGINAIIKLAHSEEESNLVGIMMSHFMFESIHPFYDGNGRTGRYLLGIQLSKILSPATALTMSSAINQFRNKYYKAFHAVEHRLNRGDGTPFVISMLELLIAAQEGLIENIKQRIDFLASLEDAIKTLRGTNSFKNHQINLLYILGQIQLFGKDETLSLESAAKFLKVSKATATRYFRTLREMELVHEVSKRPLRFALTDKGREIVGLEVKI | not soluble
16 | GAMAVKVARPCRKIEKWTYLELKGSKANEGVPQAMTAFAEFLNRTGIPINPRFSPGMSMSVPGSEKEFFAKVKELMSSHQFVVVLLPRKDVAIYNMVKRAADITFGVHTVCCVAEKFLSTKGQLGYFANVGLKVNLKFGGTNHNI | soluble
17 | MGNKIAVIPGTFDPITNGHLDIIERAAKIFDVLYVSVLNNSSKKPLFTVEERMEMIKQVTAHLPNVHVESASGLTVDYAAKRGATAIVRGLRAVSDFEYEMQIASMNRTLNADIETFFVMTNTKYSFLSSSMVKEVAQYQGDIRELVPEVVNKAVKAKFNK | not soluble
18 | MAGHVNGTCAPVIPKVGDEEDGVGQLVANLKEKGTNFVLLKKTPQILELQTILKDRSTNHSDFVFNADRLMRLVIEECLNHLPFTEHTVTTPTGFKYEGIQFNRGNCGVSLCRSGEAMEVSLRQCCRCIRIGKILIGDEQKVLYARLLPDITSRRVLLLYPTIGSGTTVCKAIEVLKEARVPDENIYLVSLFISPTGLKNITRKYPYITVVASDITSLYPNHFSTSYFGAV | not soluble
19 | MQEILIPLKEKNYKVFLGELPEIKLKQKALIISDSIVAGLHLPYLLERLKALEVRVCVIESGEKYKNFHSLERILNNAFEMQLNRHSLMIALGGGVISDMVGFASSIYFRGIDFINIPTTLLAQVDASVGGKTGINTPYGKNLIGSFHQPKAVYMDLAFLKTLEKREFQAGVAEIIKMAVCFDKNLVERLETKDLKDCLEEVIFQSVNIKAQVVVQDEKEQNIRAGLNYGHTFGHAIEKETDYERFLHGEAIAIGMRMANDLALSLGMLTLKEYERIENLLKKFDLIFHYKILDLQKFYERLFLDKKSENKTIKFILPKGVGAFEVASHIPKETIIKVLEKWH | soluble
20 | MGSDKIHHHHHHMGINKFNHEGYHDPTPHEALTNIMKKEKAEKKSAFKPLVYICSPYSGDVEGNIKKARSFCRFALDQNCIPIAPHLMFPQFMDDENPEERELAIFMDIVLMGKCSEVWVLGNTISTGMAREIEVAKKRRQTVRYFSPEHEEVESL | not soluble
21 | MKWKVLQLKTQEIKVNNLAKSSLHQPGSLVLRNRIRNNQTISNHQKVYITNLHKDKLKLNNLLRLMKSTNRHMPFRNLVLATGQELALLHNKRKRRKTLPLALFYSHLILL | not soluble
22 | MTKPIVFQNARIIDPSRTIDEIGTVIVENGLIIAAGKEALNQGIPEGAEIINAQNKAILPGLVDARVFVGEPGNESRETLASASQSAAAGGITSFLMMPNTNPVIDNIALVKFITHTAQEISSVNIYPVAAITQGFNGQEIAEFGLLKDAGAVAFSEGKKTLQNSSVMRRAMTYARDFDVPLMHETQDKDLIGQGVMNEGLLASWLGLSGIPREAEVIPLERDLRLAALTQTRYHAAQISTALSADALRLSKQRSEKISAGVSINHLSFNENDIGEYRTSFRLIPPLRTEEDRIAMIEAIKDGTVDIIVSSHDPQSLDKKNLPFSEAAIGAIGMETLLSAALRLYHNGTISLLRLTELLSTTPAKLFDLNAGTLRKGTHADLILVDLDEPWIVSPEKLYSRSKNTPFEKAHFQGRVLQTFVKGQSIFKLDQ | not soluble
23 | MQQRMGAMPMAVLYPQSYLPHSAVPCPAPGYGNMFSGYGAAPVMMMVAGNAPYPVNAHFGHSATPMYFAMDPANSAAPMAVVADAASVCATPKAKLAHSGSGNSLSTQSCCSGGETPSLLSRSAASSTVKQRPHHDVNVWGFALVDQLHPSLQRIPVPLSCLHEPTMGISLYDNNVMSSSTRPCKSSVCLLHAQGLGCAEGSRCRCFHVSSAYLMQCRATSESLCCALHNCYYSQEMLGANCAPHVSGRCYALSLDDASKFPQDGEKPYLINLSLLNLSLTVGLETLPCVNSVYVVSWKKHVCRLSMDGLCKWTKDCGHIHVCRQLTRFLQDAETLSIVKTLQERTRPKSSAELYRDIILSENTLRYVRSVAALSLVAALLEAGDVEALKTLARAKCALLPSQSEALQKLGIALSGSDSTRSVTVSPKLLALLTPKGTN | not soluble
24 | MRLTEEEVQALLEKADGWKLADERWIVKKYRFQDYLQGIEFVRRIAAISENANHHPFISIDYKLITVKLSSWRAKGLTKLDFDLAKQYDEVYNQMKQGEGE | soluble
25 | MAFKSDVIFEEIKERIATDKEMVKKVGTSFRMTIAGADGKTKVWTIDAKSDTPYVGDDSSRPVEIEINIKDSDFIAIAAGKMKPDQAFMQGKMKLKGNIAKAMKLRTILDPKMLKAKL | soluble
26 | MSLSQLEPRQQAFRNAMAHLSAAVNVITSNGPAGRCGITATAVCSVTDSPPTLMLCINRNSEMNTVFKANGRLCVNVLSGEHEEVARHFAGMTEVPMERRFALHDWREGLAGLPVLHGALANLQGRIAEVQEIGTHSVLLLELEDIQVLEQGDGLVYFSRSFHRLQCPEGGSHHHHHH | soluble
